Data as given in the supplement of paper PMC11246515.
± gives the standard deviation of the averaged measurements.

Assay: total protein half-life in vivo (active degradation + dilution); higher = more stable protein
[1] = E. coli NCM3722 delta-clpP delta-lon delta-hslV, growth: N-lim chemostat, doubling time 6 h
[2] = E. coli NCM3722 delta-clpP, growth: N-lim chemostat, doubling time 6 h
[3] = E. coli NCM3722 delta-hslV, growth: N-lim chemostat, doubling time 6 h
[4] = E. coli NCM3722 delta-lon, growth: N-lim chemostat, doubling time 6 h
[5] = E. coli NCM3722 delta-smpB, growth: N-lim chemostat, doubling time 6 h
[6] = wild type E. coli NCM3722, growth: C-lim chemostat, doubling time 3 h
[7] = wild type E. coli NCM3722, growth: C-lim chemostat, doubling time 6 h
[8] = wild type E. coli NCM3722, growth: C-lim chemostat, doubling time 12 h
[9] = wild type E. coli NCM3722, growth: N-lim chemostat, doubling time 6 h
[10] = wild type E. coli NCM3722, growth: N-lim chemostat, doubling time 12 h
[11] = wild type E. coli NCM3722, growth: P-lim chemostat, doubling time 6 h
[12] = wild type E. coli NCM3722, growth: P-lim chemostat, doubling time 12 h

Sequence | total protein half-life in vivo [1] | total protein half-life in vivo [2] | total protein half-life in vivo [3] | total protein half-life in vivo [4] | total protein half-life in vivo [5] | total protein half-life in vivo [6] | total protein half-life in vivo [7] | total protein half-life in vivo [8] | total protein half-life in vivo [9] | total protein half-life in vivo [10] | total protein half-life in vivo [11] | total protein half-life in vivo [12]
MTVSSHRLELLSPARDAAIAREAILHGADAVYIGGPGFGARHNASNSLKDIAELVPFAHRYGAKIFVTLNTILHDDELEPAQRLITDLYQTGVDALIVQDMGILELDIPPIELHASTQCDIRTVEKAKFLSDVGFTQIVLARELNLDQIRAIHQATDATIEFFIHGALCVAYSGQCYISHAQTGRSANRGDCSQACRLPYTLKDDQGRVVSYEKHLLSMKDNDQTANLGALIDAGVRSFKIEGRYKDMSYVKNITAHYRQMLDAIIEERGDLARASSGRTEHFFVPSTEKTFHRGSTDYFVNARKGDIGAFDSPKFIGLPVGEVVKVAKDHLDVAVTEPLANGDGLNVLIKREVVGFRANTVEKTGENQYRVWPNEMPADLHKIRPHHPLNRNLDHNWQQALTKTSSERRVAVDIELGGWQEQLILTLTSEEGVSITHTLDGQFDEANNAEKAMNNLKDGLAKLGQTLYYARDVQINLPGALFVPNSLLNQFRREAADMLDAARLASYQRGSRKPVADPAPVYPQTHLSFLANVYNQKAREFYHRYGVQLIDAAYEAHEEKGEVPVMITKHCLRFAFNLCPKQAKGNIKSWKATPMQLVNGDEVLTLKFDCRPCEMHVIGKIKNHILKMPLPGSVVASVSPDELLKTLPKRKG | 4.77 ± 0.49 h | 0.895 h | 1.82 ± 0.064 h | 2.74 ± 0.24 h | 1.75 ± 0.024 h | 1.911 ± 0.011 h | 2.78 ± 0.12 h | 3.03 ± 0.49 h | 2.12 ± 0.058 h | 2.47 ± 0.12 h | 2.13 ± 0.32 h | 3.17 ± 0.38 h
MTVTRPRAERGAFPPGTEHYGRSLLGAPLIWFPAPAASRESGLILAGTHGDENSSVVTLSCALRTLTPSLRRHHVVLCVNPDGCQLGLRANANGVDLNRNFPAANWKEGETVYRWNSAAEERDVVLLTGDKPGSEPETQALCQLIHRIQPAWVVSFHDPLACIEDPRHSELGEWLAQAFELPLVTSVGYETPGSFGSWCADLNLHCITAEFPPISSDEASEKYLFAMANLLRWHPKDAIRPS [P0ACV6] | 4.35 ± 0.052 h | 4.17 ± 0.28 h | 3.78 ± 0.16 h | 4.19 ± 0.46 h | 3.94 ± 0.21 h | 3.03 ± 0.27 h | 4.71 ± 0.84 h | 9.23 ± 0.26 h | 3.66 ± 0.29 h | 6.85 ± 0.2 h | 4.71 ± 0.42 h | 10.7 ± 0.85 h
MVAENQPGHIDQIKQTNAGAVYRLIDQLGPVSRIDLSRLAQLAPASITKIVREMLEAHLVQELEIKEAGNRGRPAVGLVVETEAWHYLSLRISRGEIFLALRDLSSKLVVEESQELALKDDLPLLDRIISHIDQFFIRHQKKLERLTSIAITLPGIIDTENGIVHRMPFYEDVKEMPLGEALEQHTGVPVYIQHDISAWTMAEALFGASRGARDVIQVVIDHNVGAGVITDGHLLHAGSSSLVEIGHTQVDPYGKRCYCGNHGCLETIASVDSILELAQLRLNQSMSSMLHGQPLTVDSLCQAALRGDLLAKDIITGVGAHVGRILAIMVNLFNPQKILIGSPLSKAADILFPVISDSIRQQALPAYSQHISVESTQFSNQGTMAGAALVKDAMYNGSLLIRLLQG | 5.81 ± 0.28 h | 6.92 ± 0.73 h |  | 6.12 ± 0.57 h | 6.02 ± 0.33 h | 2.89 ± 0.014 h | 5.92 ± 0.69 h | 9.65 ± 0.51 h | 5.85 ± 0.26 h | 12.8 ± 0.51 h | 6.19 ± 1 h | 12.4 ± 0.56 h
MVAPIPAKRGRKPAVATAPATGQVQSLTRGLKLLEWIAESNGSVALTELAQQAGLPNSTTHRLLTTMQQQGFVRQVGELGHWAIGAHAFMVGSSFLQSRNLLAIVHPILRNLMEESGETVNMAVLDQSDHEAIIIDQVQCTHLMRMSAPIGGKLPMHASGAGKAFLAQLSEEQVTKLLHRKGLHAYTHATLVSPVHLKEDLAQTRKRGYSFDDEEHALGLRCLAACIFDEHREPFAAISISGPISRITDDRVTEFGAMVIKAAKEVTLAYGGMR | 5.87 ± 0.33 h | 5.93 ± 0.11 h | 5.33 ± 0.38 h | 5.45 ± 0.43 h | 5.348 ± 0.028 h | 2.89 ± 0.17 h | 5.43 ± 0.46 h | 9.91 ± 0.97 h | 5.51 ± 0.18 h | 9.96 ± 1.1 h | 4.91 ± 0.12 h | 9.56 ± 0.21 h
MVDKRESYTKEDLLASGRGELFGAKGPQLPAPNMLMMDRVVKMTETGGNFDKGYVEAELDINPDLWFFGCHFIGDPVMPGCLGLDAMWQLVGFYLGWLGGEGKGRALGVGEVKFTGQVLPTAKKVTYRIHFKRIVNRRLIMGLADGEVLVDGRLIYTASDLKVGLFQDTSAF [P0A6Q3] | 4.896 ± 0.032 h | 4.99 ± 0.2 h | 5.5 ± 0.67 h | 5.48 ± 0.64 h | 5.18 ± 0.13 h | 3.03 ± 0.035 h | 5.626 ± 0.038 h | 11.5 ± 1.6 h | 5.0372 ± 0.0034 h | 10.1 ± 0.12 h | 5.56 ± 0.57 h | 12.2 ± 0.94 h
MVKLAFPRELRLLTPSQFTFVFQQPQRAGTPQITILGRLNSLGHPRIGLTVAKKNVRRAHERNRIKRLTRESFRLRQHELPAMDFVVVAKKGVADLDNRALSEALEKLWRRHCRLARGS [P0A7Y8] |  | 5.44 h | 4.21 h | 6.46 ± 0.22 h | 3.76 ± 0.17 h | 3.11 ± 0.27 h | 4.82 ± 0.15 h | 8.06 h | 3.63 ± 0.43 h | 7.32 ± 2.1 h | 3.7 h | 7.12 ± 0.64 h
MVKLPPLSLYIHIPWCVQKCPYCDFNSHALKGEVPHDDYVQHLLNDLDNDVAYAQGREVKTIFIGGGTPSLLSGPAMQTLLDGVRARLPLAADAEITMEANPGTVEADRFVDYQRAGVNRISIGVQSFSEEKLKRLGRIHGPQEAKRAAKLASGLGLRSFNLDLMHGLPDQSLEEALGDLRQAIELNPPHLSWYQLTIEPNTLFGSRPPVLPDDDALWDIFEQGHQLLTAAGYQQYETSAYAKPGYQCQHNLNYWRFGDYIGIGCGAHGKVTFPDGRILRTTKTRHPRGFMQGRYLESQRDVEATDKPFEFFMNRFRLLEAAPRVEFIAYTGLCEDVIRPQLDEAIAQGYLTECADYWQITEHGKLFLNSLLELFLAE | 4.14 ± 1.6 h | 5.76 ± 2.5 h | 4.32 ± 0.36 h | 4.24 ± 0.52 h | 3.734 ± 0.022 h | 3.01 ± 0.05 h | 4.82 ± 0.96 h | 8.1 ± 1.6 h | 4.03 ± 0.08 h | 6.81 ± 0.47 h | 5.41 ± 0.25 h | 10.4 ± 0.86 h
MVKSQPILRYILRGIPAIAVAVLLSACSANNTAKNMHPETRAVGSETSSLQASQDEFENLVRNVDVKSRIMDQYADWKGVRYRLGGSTKKGIDCSGFVQRTFREQFGLELPRSTYEQQEMGKSVSRSNLRTGDLVLFRAGSTGRHVGIYIGNNQFVHASTSSGVIISSMNEPYWKKRYNEARRVLSRS [P0AFV4] | 2.68 ± 0.98 h | 2.09 ± 0.79 h | 2.61 ± 1.4 h | 2.34 ± 0.085 h | 2.33 ± 0.45 h | 1.02 ± 0.41 h | 3.38 ± 0.45 h | 7.8 ± 1.4 h | 2.19 ± 1.5 h | 4.29 ± 1.6 h | 3.39 ± 0.15 h | 4.64 ± 0.49 h
MVKTQRVVITPGEPAGIGPDLVVQLAQREWPVELVVCADATLLTNRAAMLGLPLTLRPYSPNSPAQPQTAGTLTLLPVALRAPVTAGQLAVENGHYVVETLARACDGCLNGEFAALITGPVHKGVINDAGIPFTGHTEFFEERSQAKKVVMMLATEELRVALATTHLPLRDIADAITPALLHEVIAILHHDLRTKFGIAEPRILVCGLNPHAGEGGHMGTEEIDTIIPVLNELRAQGMKLNGPLPADTLFQPKYLDNADAVLAMYHDQGLPVLKYQGFGRGVNITLGLPFIRTSVDHGTALELAGRGKADVGSFITALNLAIKMIVNTQ | 4.27 h | 3.54 h | 3.58 h | 4.45 ± 0.1 h | 4.72 ± 0.25 h | 2.98 ± 0.15 h | 5.541 ± 0.046 h | 9.78 ± 0.65 h | 4.33 h | 7.247 ± 0.038 h | 4.67 ± 0.49 h | 9.91 ± 0.5 h
MVKVYAPASSANMSVGFDVLGAAVTPVDGALLGDVVTVEAAETFSLNNLGRFADKLPSEPRENIVYQCWERFCQELGKQIPVAMTLEKNMPIGSGLGSSACSVVAALMAMNEHCGKPLNDTRLLALMGELEGRISGSIHYDNVAPCFLGGMQLMIEENDIISQQVPGFDEWLWVLAYPGIKVSTAEARAILPAQYRRQDCIAHGRHLAGFIHACYSRQPELAAKLMKDVIAEPYRERLLPGFRQARQAVAEIGAVASGISGSGPTLFALCDKPETAQRVADWLGKNYLQNQEGFVHICRLDTAGARVLEN | 5.55 ± 0.88 h | 3.7 ± 0.34 h | 4.29 ± 0.69 h | 5.16 ± 0.65 h | 4.35 ± 0.11 h | 2.73 ± 0.61 h | 5.63 ± 0.58 h | 8.58 ± 0.091 h | 4.31 ± 0.33 h | 6.8 ± 0.37 h | 6.04 ± 0.13 h | 12.6 ± 0.79 h
MVLMIVSGRSGSGKSVALRALEDMGFYCVDNLPVVLLPDLARTLADREISAAVSIDVRNMPESPEIFEQAMSNLPDAFSPQLLFLDADRNTLIRRYSDTRRLHPLSSKNLSLESAIDKESDLLEPLRSRADLIVDTSEMSVHELAEMLRTRLLGKRERELTMVFESFGFKHGIPIDADYVFDVRFLPNPHWDPKLRPMTGLDKPVAAFLDRHTEVHNFIYQTRSYLELWLPMLETNNRSYLTVAIGCTGGKHRSVYIAEQLADYFRSRGKNVQSRHRTLEKRKP [P0A894] | 5.6 ± 1.1 h | 4.58 ± 0.2 h | 4.92 ± 0.47 h | 5.04 ± 0.64 h | 4.453 ± 0.016 h | 3.02 ± 0.095 h | 6.62 ± 1.3 h | 11.5 ± 0.81 h | 4.48 ± 0.31 h | 7.88 ± 1.8 h | 5.95 ± 0.11 h | 12.1 ± 0.55 h
